In patent US20180155451A1 (published 2018):

Each binder was assayed against T1, FcγRIa extracellular domain with C-terminal His tag (human, UniProt P12314 16-292) (assay: SPR Biacore, relative FcγRIa binding vs GpH7-A5/GpH7-B3/GpL16-k0).
T1 construct: extracellular domain; also called FcgRI; CD64; not shown: His tag at the C terminus
T1 sequence (P12314 16-292): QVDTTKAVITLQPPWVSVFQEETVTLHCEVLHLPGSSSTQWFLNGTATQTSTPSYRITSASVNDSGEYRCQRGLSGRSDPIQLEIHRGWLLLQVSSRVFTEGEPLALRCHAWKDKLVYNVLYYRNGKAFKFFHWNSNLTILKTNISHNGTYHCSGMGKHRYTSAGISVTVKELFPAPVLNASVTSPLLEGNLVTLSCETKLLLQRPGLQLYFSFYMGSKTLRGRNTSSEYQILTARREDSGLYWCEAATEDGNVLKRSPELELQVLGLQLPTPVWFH

| Binder | He/Con_1a |
| --- | --- |
| GpH7-A5/GpH7-B3 variant S337_01G/GpL16-k0 (antibody, human IgG1, kappa, mutation in one H chain only; also called He Ab S337_01G; S337G) heavy 1: not shown heavy 2: not shown light: DIVMTQSPLSLPVTPGEPASISCQASESLVHSNRNTYLHWYLQKPGQSPQLLIYKVSNRFSGVPDRFSGSGSGTDFTLKISRVEAEDVGVYYCSQNTHVPPTFGQGTKVEIERTVAAPSVFIFPPSDEQLKSGTASVVCLLNNFYPREAKVQWKVDNALQSGNSQESVTEQDSKDSTYSLSSTLTLSKADYEKHKVYACEVTHQGLSSPVTKSFNRGEC | 107 % of HeCon Ab (=100) |
| GpH7-A5/GpH7-B3 variant S337_06M/GpL16-k0 (antibody, human IgG1, kappa, mutation in one H chain only; also called He Ab S337_06M; S337M) heavy 1: not shown heavy 2: not shown light: DIVMTQSPLSLPVTPGEPASISCQASESLVHSNRNTYLHWYLQKPGQSPQLLIYKVSNRFSGVPDRFSGSGSGTDFTLKISRVEAEDVGVYYCSQNTHVPPTFGQGTKVEIERTVAAPSVFIFPPSDEQLKSGTASVVCLLNNFYPREAKVQWKVDNALQSGNSQESVTEQDSKDSTYSLSSTLTLSKADYEKHKVYACEVTHQGLSSPVTKSFNRGEC | 107 % of HeCon Ab (=100) |
| GpH7-A5/GpH7-B3 variant S337_04F/GpL16-k0 (antibody, human IgG1, kappa, mutation in one H chain only; also called He Ab S337_04F; S337F) heavy 1: not shown heavy 2: not shown light: DIVMTQSPLSLPVTPGEPASISCQASESLVHSNRNTYLHWYLQKPGQSPQLLIYKVSNRFSGVPDRFSGSGSGTDFTLKISRVEAEDVGVYYCSQNTHVPPTFGQGTKVEIERTVAAPSVFIFPPSDEQLKSGTASVVCLLNNFYPREAKVQWKVDNALQSGNSQESVTEQDSKDSTYSLSSTLTLSKADYEKHKVYACEVTHQGLSSPVTKSFNRGEC | 106 % of HeCon Ab (=100) |
| GpH7-A5/GpH7-B3 variant S337_03V/GpL16-k0 (antibody, human IgG1, kappa, mutation in one H chain only; also called He Ab S337_03V; S337V) heavy 1: not shown heavy 2: not shown light: DIVMTQSPLSLPVTPGEPASISCQASESLVHSNRNTYLHWYLQKPGQSPQLLIYKVSNRFSGVPDRFSGSGSGTDFTLKISRVEAEDVGVYYCSQNTHVPPTFGQGTKVEIERTVAAPSVFIFPPSDEQLKSGTASVVCLLNNFYPREAKVQWKVDNALQSGNSQESVTEQDSKDSTYSLSSTLTLSKADYEKHKVYACEVTHQGLSSPVTKSFNRGEC | 107 % of HeCon Ab (=100) |

The remaining lines, values ahead:

| He/Con_1a | Binder |
| --- | --- |
| 109 % of HeCon Ab (=100) | GpH7-A5/GpH7-B3 variant T335_10E/GpL16-k0 (antibody, human IgG1, kappa, mutation in one H chain only; also called He Ab T335_10E; T335E) heavy 1: not shown heavy 2: not shown light: DIVMTQSPLSLPVTPGEPASISCQASESLVHSNRNTYLHWYLQKPGQSPQLLIYKVSNRFSGVPDRFSGSGSGTDFTLKISRVEAEDVGVYYCSQNTHVPPTFGQGTKVEIERTVAAPSVFIFPPSDEQLKSGTASVVCLLNNFYPREAKVQWKVDNALQSGNSQESVTEQDSKDSTYSLSSTLTLSKADYEKHKVYACEVTHQGLSSPVTKSFNRGEC |
| 105 % of HeCon Ab (=100) | GpH7-A5/GpH7-B3 variant S337_19Q/GpL16-k0 (antibody, human IgG1, kappa, mutation in one H chain only; also called He Ab S337_19Q; S337Q) heavy 1: not shown heavy 2: not shown light: DIVMTQSPLSLPVTPGEPASISCQASESLVHSNRNTYLHWYLQKPGQSPQLLIYKVSNRFSGVPDRFSGSGSGTDFTLKISRVEAEDVGVYYCSQNTHVPPTFGQGTKVEIERTVAAPSVFIFPPSDEQLKSGTASVVCLLNNFYPREAKVQWKVDNALQSGNSQESVTEQDSKDSTYSLSSTLTLSKADYEKHKVYACEVTHQGLSSPVTKSFNRGEC |
| 104 % of HeCon Ab (=100) | GpH7-A5/GpH7-B3 variant S337_15Y/GpL16-k0 (antibody, human IgG1, kappa, mutation in one H chain only; also called He Ab S337_15Y; S337Y) heavy 1: not shown heavy 2: not shown light: DIVMTQSPLSLPVTPGEPASISCQASESLVHSNRNTYLHWYLQKPGQSPQLLIYKVSNRFSGVPDRFSGSGSGTDFTLKISRVEAEDVGVYYCSQNTHVPPTFGQGTKVEIERTVAAPSVFIFPPSDEQLKSGTASVVCLLNNFYPREAKVQWKVDNALQSGNSQESVTEQDSKDSTYSLSSTLTLSKADYEKHKVYACEVTHQGLSSPVTKSFNRGEC |
| 106 % of HeCon Ab (=100) | GpH7-A5/GpH7-B3 variant S337_10E/GpL16-k0 (antibody, human IgG1, kappa, mutation in one H chain only; also called He Ab S337_10E; S337E) heavy 1: not shown heavy 2: not shown light: DIVMTQSPLSLPVTPGEPASISCQASESLVHSNRNTYLHWYLQKPGQSPQLLIYKVSNRFSGVPDRFSGSGSGTDFTLKISRVEAEDVGVYYCSQNTHVPPTFGQGTKVEIERTVAAPSVFIFPPSDEQLKSGTASVVCLLNNFYPREAKVQWKVDNALQSGNSQESVTEQDSKDSTYSLSSTLTLSKADYEKHKVYACEVTHQGLSSPVTKSFNRGEC |
| 106 % of HeCon Ab (=100) | GpH7-A5/GpH7-B3 variant T335_05P/GpL16-k0 (antibody, human IgG1, kappa, mutation in one H chain only; also called He Ab T335_05P; T335P) heavy 1: not shown heavy 2: not shown light: DIVMTQSPLSLPVTPGEPASISCQASESLVHSNRNTYLHWYLQKPGQSPQLLIYKVSNRFSGVPDRFSGSGSGTDFTLKISRVEAEDVGVYYCSQNTHVPPTFGQGTKVEIERTVAAPSVFIFPPSDEQLKSGTASVVCLLNNFYPREAKVQWKVDNALQSGNSQESVTEQDSKDSTYSLSSTLTLSKADYEKHKVYACEVTHQGLSSPVTKSFNRGEC |
| 105 % of HeCon Ab (=100) | GpH7-A5/GpH7-B3 variant S337_07I/GpL16-k0 (antibody, human IgG1, kappa, mutation in one H chain only; also called He Ab S337_07I; S337I) heavy 1: not shown heavy 2: not shown light: DIVMTQSPLSLPVTPGEPASISCQASESLVHSNRNTYLHWYLQKPGQSPQLLIYKVSNRFSGVPDRFSGSGSGTDFTLKISRVEAEDVGVYYCSQNTHVPPTFGQGTKVEIERTVAAPSVFIFPPSDEQLKSGTASVVCLLNNFYPREAKVQWKVDNALQSGNSQESVTEQDSKDSTYSLSSTLTLSKADYEKHKVYACEVTHQGLSSPVTKSFNRGEC |
| 105 % of HeCon Ab (=100) | GpH7-A5/GpH7-B3 variant S337_08L/GpL16-k0 (antibody, human IgG1, kappa, mutation in one H chain only; also called He Ab S337_08L; S337L) heavy 1: not shown heavy 2: not shown light: DIVMTQSPLSLPVTPGEPASISCQASESLVHSNRNTYLHWYLQKPGQSPQLLIYKVSNRFSGVPDRFSGSGSGTDFTLKISRVEAEDVGVYYCSQNTHVPPTFGQGTKVEIERTVAAPSVFIFPPSDEQLKSGTASVVCLLNNFYPREAKVQWKVDNALQSGNSQESVTEQDSKDSTYSLSSTLTLSKADYEKHKVYACEVTHQGLSSPVTKSFNRGEC |
